The chains are these.
B5: DKFZp434D174.1 (GI 7512558) (other, UniProt P57678 1-1058, looked up)
chain: MDLGPLNICEEMTILHGGFLLAEQLFHPKALAELTKSDWERVGRPIVEALREISSAAAHSQPFAWKKKALIIIWAKVLQPHPVTPSDTETRWQEDLFFSVGNMIPTINHTILFELLKSLEASGLFIQLLMALPTTICHAELERFLEHVTVDTSAEDVAFFLDVWWEVMKHKGHPQDPLLSQFSAMAHKYLPALDEFPHPPKRLRSDPDACPTMPLLAMLLRGLTQIQSRILGPGRKCCALANLADMLTVFALTEDDPQEVSATVYLDKLATVISVWNSDTQNPYHQQALAEKVKEAERDVSLTSLAKLPSETIFVGCEFLHHLLREWGEELQAVLRSSQGTSYDSYRLCDSLTSFSQNATLYLNRTSLSKEDRQVVSELAECVRDFLRKTSTVLKNRALEDITASIAMAVIQQKMDRHMEVCYIFASEKKWAFSDEWVACLGSNRALFRQPDLVLRLLETVIDVSTADRAIPESQIRQVIHLILECYADLSLPGKNKVLAGILRSWGRKGLSEKLLAYVEGFQEDLNTTFNQLTQSASEQGLAKAVASVARLVIVHPEVTVKKMCSLAVVNLGTHKFLAQILTAFPALRFVEEQGPNSSATFMVSCLKETVWMKFSTPKEEKQFLELLNCLMSPVKPQGIPVAALLEPDEVLKEFVLPFLRLDVEEVDLSLRIFIQTLEANACREEYWLQTCSPFPLLFSLCQLLDRFSKYWQLPKEKRCLSLDRKDLAIHILELLCEIVSANAETFSPDVWIKSLSWLHRKLEQLDWTVGLRLKSFFEGHFKCEVPATLFEICKLSEDEWTSQAHPGYGAGTGLLAWMECCCVSSGISERMLSLLVVDVGNPEEVRLFSKGFLVALVQVMPWCSPQEWQRLHQLTRRLLEKQLLHVPYSLEYIQFVPLLNLKPFAQELQLSVLFLRTFQFLCSHSCRDWLPLEGWNHVVKLLCGSLTRLLDSVRAIQAAGPWVQGPEQDLTQEALFVYTQVFCHALHIMAMLHPEVCEPLYVLALETLTCYETLSKTNPSVSSLLQRAHEQRFLKSIAEGIGPEERRQTLLQKMSSF
notes: also called gemin4; gemin 4

Assay [1] deals with B5. As to the kind of experiment: anti-FLAG co-IP, MS.
Protocol: (§1) Forty-eight hours (h or hr) later, transfected cells (approximately 1×10⁸ cells) were washed in Tris-Saline (25 mM Tris-HCl pH 7.5, 140 mM NaCl, 8 mM KCl, 700 μM Na₂HPO₄, 5.5 mM glucose) and lysed in Lysis Buffer (KLB, 20 mM Tris-HCl pH7.5, 150 mM NaCl, 1% NP40, 0.5% sodium deoxycholate, and 0.2 mM AEBSF (4-(2-aminoethyl)-benzenesulfonyl fluoride)). Following centrifugation to remove insoluble material, clarified lysates were incubated with Sepharose-4B (10 μl packed sepharose/ml of lysate) for 20 min at 4° C. with gentle mixing (by end-over-end inversion). The supernatant was then incubated with immobilized anti-Flag monoclonal antibodies (M2-agarose, Sigma-Aldrich; 1 μl packed M2-agarose/ml lysate) for 60 min at 4° C. with gentle mixing. The M2-agarose was washed two times with 1 ml KLB lacking AEBSF, and washed one time with 1 ml of 50 mM ammonium bicarbonate. […] After 30 min at 4° C., the M2-agarose beads were removed by centrifugation, the eluted proteins were lyophilized by vacuum centrifugation and resuspended in SDS-PAGE sample buffer.
The target in assay [2] is T1, Flag-epitope-tagged murine Ras-GRF2 (murine, UniProt P70392 1-1189, limits assumed).
T1 construct: Bait; expressed stably (Clone 13, Clone 21) or transiently in human 293 cells; also called Flag-GRF2; FLAG-GRF2
T1 sequence (looked up): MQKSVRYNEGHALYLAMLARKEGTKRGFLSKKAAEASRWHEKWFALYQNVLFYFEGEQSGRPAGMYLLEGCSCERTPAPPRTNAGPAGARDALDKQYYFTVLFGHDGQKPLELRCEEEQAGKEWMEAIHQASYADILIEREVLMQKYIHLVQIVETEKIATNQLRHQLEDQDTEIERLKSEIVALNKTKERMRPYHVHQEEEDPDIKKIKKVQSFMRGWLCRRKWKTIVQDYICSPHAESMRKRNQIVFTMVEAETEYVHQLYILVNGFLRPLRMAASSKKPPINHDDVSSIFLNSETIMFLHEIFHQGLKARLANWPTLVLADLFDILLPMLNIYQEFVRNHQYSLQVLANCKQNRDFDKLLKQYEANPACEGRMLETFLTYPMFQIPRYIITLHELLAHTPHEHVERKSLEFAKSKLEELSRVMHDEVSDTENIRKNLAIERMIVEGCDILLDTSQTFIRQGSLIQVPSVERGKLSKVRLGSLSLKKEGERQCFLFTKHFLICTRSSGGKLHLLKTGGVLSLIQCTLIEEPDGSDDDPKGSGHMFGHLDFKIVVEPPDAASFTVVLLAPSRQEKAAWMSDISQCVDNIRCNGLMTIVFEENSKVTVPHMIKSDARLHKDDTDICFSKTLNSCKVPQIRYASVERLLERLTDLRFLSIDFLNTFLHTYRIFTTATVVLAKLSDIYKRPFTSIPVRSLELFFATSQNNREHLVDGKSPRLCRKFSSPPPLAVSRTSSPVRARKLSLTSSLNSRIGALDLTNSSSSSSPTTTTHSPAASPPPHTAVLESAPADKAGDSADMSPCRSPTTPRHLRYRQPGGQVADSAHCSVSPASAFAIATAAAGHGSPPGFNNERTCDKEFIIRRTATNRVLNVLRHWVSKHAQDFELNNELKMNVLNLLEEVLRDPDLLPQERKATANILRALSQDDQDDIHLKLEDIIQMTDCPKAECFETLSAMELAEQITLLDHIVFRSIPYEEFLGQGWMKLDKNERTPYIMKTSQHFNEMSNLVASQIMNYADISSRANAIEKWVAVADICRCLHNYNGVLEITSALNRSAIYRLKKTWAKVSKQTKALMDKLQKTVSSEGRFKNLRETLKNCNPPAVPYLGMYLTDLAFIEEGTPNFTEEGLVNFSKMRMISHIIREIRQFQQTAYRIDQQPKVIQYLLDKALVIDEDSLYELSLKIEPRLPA
As to the kind of experiment: anti-FLAG co-IP, MS.
Protocol: as §1

B1: FLAG-PP2C (enzyme, human, UniProt O75688 1-479, looked up, not shown: small tags and cut ends)
chain: MGAFLDKPKTEKHNAHGAGNGLRYGLSSMQGWRVEMEDAHTAVVGIPHGLEDWSFFAVYDGHAGSRVANYCSTHLLEHITTNEDFRAAGKSGSALELSVENVKNGIRTGFLKIDEYMRNFSDLRNGMDRSGSTAVGVMISPKHIYFINCGDSRAVLYRNGQVCFSTQDHKPCNPREKERIQNAGGSVMIQRVNGSLAVSRALGDYDYKCVDGKGPTEQLVSPEPEVYEILRAEEDEFIILACDGIWDVMSNEELCEYVKSRLEVSDDLENVCNWVVDTCLHKGSRDNMSIVLVCFSNAPKVSDEAVKKDSELDKHLESRVEEIMEKSGEEGMPDLAHVMRILSAENIPNLPPGGGLAGKRNVIEAVYSRLNPHRESDGASDEAEESGSQGKLVEALRQMRINHRGNYRQLLEEMLTSYRLAKVEGEESPAEPAATATSSNSDAGNPVTMQESHTESESGLAELDSSNEDAGTKMSGEKI
notes: also called PP2C bait
Take B1: the binding result in assay [1] was “no binding”.

B2: FLAG-Ndr (K118A) mutant fusion protein (enzyme, not shown: small tags and cut ends)
chain: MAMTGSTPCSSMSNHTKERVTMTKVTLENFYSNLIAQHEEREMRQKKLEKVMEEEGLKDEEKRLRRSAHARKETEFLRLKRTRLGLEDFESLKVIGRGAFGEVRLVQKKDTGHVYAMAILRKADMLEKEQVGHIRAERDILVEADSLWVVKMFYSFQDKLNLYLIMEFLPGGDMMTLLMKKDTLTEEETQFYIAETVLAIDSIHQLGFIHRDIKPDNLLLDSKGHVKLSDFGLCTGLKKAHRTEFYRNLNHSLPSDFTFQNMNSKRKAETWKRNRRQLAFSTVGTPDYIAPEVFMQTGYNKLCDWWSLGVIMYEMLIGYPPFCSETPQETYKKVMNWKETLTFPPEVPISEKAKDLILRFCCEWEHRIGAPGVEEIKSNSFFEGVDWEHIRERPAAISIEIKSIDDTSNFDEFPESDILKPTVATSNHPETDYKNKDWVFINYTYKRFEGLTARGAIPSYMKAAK
notes: also called K118A Ndr
On to B2, for which the binding result in assay [1] is reported as “no binding”.

B3: protein 4.1 isoB (GI 182074) (other, UniProt P11171-3 1-641, looked up)
chain: MHCKVSLLDDTVYECVVEKHAKGQDLLKRVCEHLNLLEEDYFGLAIWDNATSKTWLDSAKEIKKQVRGVPWNFTFNVKFYPPDPAQLTEDITRYYLCLQLRQDIVAGRLPCSFATLALLGSYTIQSELGDYDPELHGVDYVSDFKLAPNQTKELEEKVMELHKSYRSMTPAQADLEFLENAKKLSMYGVDLHKAKDLEGVDIILGVCSSGLLVYKDKLRINRFPWPKVLKISYKRSSFFIKIRPGEQEQYESTIGFKLPSYRAAKKLWKVCVEHHTFFRLTSTDTIPKSKFLALGSKFRYSGRTQAQTRQASALIDRPAPHFERTASKRASRSLDGAAAVDSADRSPRPTSAPAITQGQVAEGGVLDASAKKTVVPKAQKETVKAEVKKEDEPPEQAEPEPTEAWKVEKTHIEVTVPTSNGDQTQKKRERLDGENIYIRHSNLMLEDLDKSQEEIKKHHASISELKKNFMESVPEPRPSEWDKRLSTHSPFRTLNINGQIPTGEGPPLVKTQTVTISDNANAVKSEIPTKDVPIVHTETKTITYEAAQTDDNSGDLDPGVLLTAQTITSETPSSTTTTQITKTVKGGISETRIEKRIVITGDADIDHDQVLVQAIKEAKEQHPDMSVTKVVVHQETEIADE
notes: also called Erythroid protein 4.1 isoform B
Regarding B3, the binding result in assay [2] is “no binding”.

B4: FLAG-Ndr (cells treated with okadaic acid) (enzyme, not shown: small tags and cut ends)
chain: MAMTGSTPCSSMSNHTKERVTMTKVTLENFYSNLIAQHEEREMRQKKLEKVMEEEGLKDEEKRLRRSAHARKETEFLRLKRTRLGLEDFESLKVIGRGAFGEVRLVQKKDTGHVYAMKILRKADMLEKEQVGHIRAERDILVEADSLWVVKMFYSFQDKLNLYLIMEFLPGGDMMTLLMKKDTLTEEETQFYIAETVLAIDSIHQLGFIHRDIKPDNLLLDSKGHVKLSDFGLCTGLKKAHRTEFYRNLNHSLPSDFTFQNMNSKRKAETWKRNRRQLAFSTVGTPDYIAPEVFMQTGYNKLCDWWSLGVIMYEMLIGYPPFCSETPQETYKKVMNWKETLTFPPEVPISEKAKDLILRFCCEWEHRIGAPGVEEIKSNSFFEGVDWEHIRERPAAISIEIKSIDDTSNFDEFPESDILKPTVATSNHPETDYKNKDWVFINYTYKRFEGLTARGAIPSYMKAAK
notes: also called Ndr bait; active Ndr
Take B4: in assay [1], the binding result is recorded as “no binding”.
In the case of B5, the binding result in assay [2] is reported as “no binding”.

(Values after US20040170969A1 (published 2004).)
